Target: the molecule itself
Assay: SEC; FLAG-purified E3-5xFLAG on Superose 6 in 350 mM NaCl; peak fraction (16 ml, ~230 kDa) analysed by MudPIT

B1: yeast PDC E3, Lpd1-5xFLAG (natural protein, S. cerevisiae, UniProt P09624 22-499, looked up)
chain: TINKSHDVVIIGGGPAGYVAAIKAAQLGFNTACVEKRGKLGGTCLNVGCIPSKALLNNSHLFHQMHTEAQKRGIDVNGDIKINVANFQKAKDDAVKQLTGGIELLFKKNKVTYYKGNGSFEDETKIRVTPVDGLEGTVKEDHILDVKNIIVATGSEVTPFPGIEIDEEKIVSSTGALSLKEIPKRLTIIGGGIIGLEMGSVYSRLGSKVTVVEFQPQIGASMDGEVAKATQKFLKKQGLDFKLSTKVISAKRNDDKNVVEIVVEDTKTNKQENLEAEVLLVAVGRRPYIAGLGAEKIGLEVDKRGRLVIDDQFNSKFPHIKVVGDVTFGPMLAHKAEEEGIAAVEMLKTGHGHVNYNNIPSVMYSHPEVAWVGKTEEQLKEAGIDYKIGKFPFAANSRAKTNQDTEGFVKILIDSKTERILGAHIIGPNAGEMIAEAGLALEYGASAEDVARVCHAHPTLSEAFKEANMAAYDKAIHC
notes: Dihydrolipoamide dehydrogenase (E3, Lpd1), S. cerevisiae BY4741; also called E3-5xFLAG; yPDC-E3
B1: binds.

From article PMC7769281, “The plasticity of the pyruvate dehydrogenase complex confers a labile structure that is associated with its catalytic activity” (PLoS ONE, 2020)
